The nature of the data set: yeast display, Sf9 membrane polyspecificity reagent, FACS + sequencing; frameworks hold sequencing errors. Put shortly:
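Nanobodies came from a synthetic yeast display library in Saccharomyces cerevisiae BJ5465, induced with galactose for 36–48 hours and stained for 1 hour at 4 °C with 10% biotinylated, detergent-solubilized Sf9 membrane reagent. Cells were enriched on streptavidin microbeads and then FACS-sorted, with low and high (top ~1%) gates set on anti-HA fluorescence for expression and streptavidin fluorescence for reagent binding. Each polyreactivity label reflects the gate a clone came from. Genes were amplified by colony PCR, sequenced by MiSeq 2 × 250 and filtered by CDR length.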
As for “QVQLVESGGGLVQAGGSLRLSCAASGITFYDKAMGWYREAPGKERELVAGISYDGDSTYADSVKGRFTISRDNAKNTVYLQMNSLKPEDTAVYYCAALGPYDWLWAGDYWGQGTQVTVSS”, the “polyreactivity (PSR sort gate)” value is recorded as “low polyreactivity”.
The value for “QVQLVESGGGLVQAGGSLRLSCAASGITFYDNAMGWYRPAPGKERELVAGISYDGDSTYADSVKGRFTISRDNAKNTVYLQMNSLKPEDTAVYYCAALGPYDWLWAGDYWGQGTQVTVSS” was “low polyreactivity”.
Next, “QVQLVESGGGLVQAGGSLRLSCAASGITFYDNVMGWYRQAAGKERELVAAITSGGSTNYADSVKGRFTISRDNAKNTVYLQMNSLKPEDTAVYYCAAQPRVDYEFPYRYGYWGQGTQVTVSS”: “low polyreactivity”; “QVQLVESGGGLVQAGGSLRLSCAASGITFYDNVMGWYRQAPGKERELVAAITDSGGSTYYADSVKGRFTISRDNAKNTVYLQMNSLKPEDTAVYYCNADVNAHWWWYIEEYWGQGTQVTVSS”: “low polyreactivity”; “QVQLVESGGGLVQAGGSLRLSCAASGITFYDYAMGWYRQAPGKEREFFARITASGARTYYADSVKGRFTISRDNAKNTVYLQMNSLKPEDTAVYYCAVRGGRPSRRHYDKYDYWGQGTQVTVSS”: “low polyreactivity”.
The value for “QVQLVESGGGLVQAGGSLRLSCAASGITFYEYAMGLYRKAPGKERELVAAISDRGGSTYYADSVKGRFTISRDNSKNTVYLQLNSLKPEDTAVYYCAGRNTPAQLDYWGQGTQVTVSS” was “low polyreactivity”; that for “QVQLVESGGGLVQAGGSLRLSCAASGITFYEYTMGWYRQAPGKETELVAVIRKTGGSTYYADSVKGRFTISRDNAKNTVYLQMNSLKPEDTAVYYCNARYGGSGRVPRSYDYWGQGTQVTVSS” was “high polyreactivity”; that for “QVQLVESGGGLVQAGGSLRLSCAASGITFYFYAMGCERQAPGKERELVAAINRSGSSTYYADSVKGRFTISRDNAKTSVYLQMNSLNPEDTAVYYFAAGWYPWAYEDWGQGTQVTVTS” was “high polyreactivity”.
Regarding “QVQLVESGGGLVQAGGSLRLSCAASGITFYGNAMGWYRQAPGKERELVAAITASGGRTYYADSVKGRFTISRDNAKNTVYLQMNSLKPEDTAVYYCAAKKATVVYRMEYWGQGTQVTVSS”, the “polyreactivity (PSR sort gate)” value is on record as “high polyreactivity”.
Next, “QVQLVESGGGLVQAGGSLRLSCAASGITFYGNAMGWYRQAPGKERELVANTYYADSVKGRFTISRDNAKNTVYLQMNSLKPEDTAVYYCNVLFADKSDYWGQGTQVTVSS”: “low polyreactivity”; “QVQLVESGGGLVQAGGSLRLSCAASGITFYGYAMGWYRQAPGKERELVAAITSGGSTYYADSVKGRFTISRDNAKNTVYLQMNSLKPEDTAVYYCARYYWIRVGRYYRYEYWGQGTQVTVSS”: “low polyreactivity”.
Consider “QVQLVESGGGLVQAGGSLRLSCAASGITFYGYAMGWYRQAPGKERELVARISRGGRTYYADSVKGRFTISRDNAKNTVYLQMNSLKPEDTAVYYCAAGKYWYAGKYLYDYWGQGTQVTVSS”, for which the “polyreactivity (PSR sort gate)” value is “high polyreactivity”.
The value for “QVQLVESGGGLVQAGGSLRLSCAASGITFYGYAMGWYRQEPGKERELVATISSGGGTNYADSVKGRFTISRDNAKNTVYLQMNSLKPEDTAVYYCATDLSTVDYNYWGQGTQVTVSS” was “low polyreactivity”; that for “QVQLVESGGGLVQAGGSLRLSCAASGITFYGYVMGWYRQAPGKERELVAAISTSGGSTYYADSVKGRFTISRDNAKNTVYLQMNSLKPEDTAVYYCAKYLYPFYPDYDYWGQGTQVTVSS” was “high polyreactivity”.
As to “QVQLVESGGGLVQAGGSLRLSCAASGITFYHYAMGWYRQAPGKERELVAAISVSGGRTYYADSVKGRFTISRDNAKITVYLQMNSLKPEDTAVYYCAKVSQVRGFYYWGQGTQVTVSS”, the “polyreactivity (PSR sort gate)” value is on record as “high polyreactivity”.
Next, “QVQLVESGGGLVQAGGSLRLSCAASGITFYIYAMGWSRQAPGKEREFVASITWRGGSTYYADSVKGRFTISRDNAKNTVYLQMNSLKPEDTAVYYCNAEYSSSRYWYYDYWGQGTQVTVSS”: “high polyreactivity”; “QVQLVESGGGLVQAGGSLRLSCAASGITFYIYAMGWYRQAPGKEREFVASITWRGGSTYYADSVKGRFTISRDNAKNTVYLQMNSLKPEDTAVYYCNAEYSSSRYWYYDYWGQGTQVTVSS”: “high polyreactivity”.
Consider “QVQLVESGGGLVQAGGSLRLSCAASGITFYIYAMGWYRQAPGKERELVAAISDDGSTHYADSVKGRFTISRDNAKNTVYLHMNSLKPEDTAVYYCNADYYWFFDFFDYDYWGQGTQVTVSS”, for which the “polyreactivity (PSR sort gate)” value is “low polyreactivity”.
The value for “QVQLVESGGGLVQAGGSLRLSCAASGITFYLYAMGWYRQAPGKERELVAAISGRGGITYYADSVKGRFTISRDNAKNTVYLQMNSLKPEDTAVYYCAAGKLIWGQGTQVTVSS” was “high polyreactivity”.
The value for “QVQLVESGGGLVQAGGSLRLSCAASGITFYPYAMGWYRQAPGKERELVAAISFSGGSTYYADSVKGRFTISRDNAKNTVYLQMNSLKPEDTAVYYCAADRRSGDDYWGQGTQVTVSS” was “high polyreactivity”; that for “QVQLVESGGGLVQAGGSLRLSCAASGITFYPYAMGWYRQAPGTERELVAAITGSGGRTYYADSVKGRFTISRDNAKNTVYLQMNSLKPEDTAVYYCAKVARYPDMGYWGQGTQVTVSS” was “high polyreactivity”; that for “QVQLVESGGGLVQAGGSLRLSCAASGITFYTYVMGWYRQAHGKERELVAAITNADSTYYADSVKGRFTISRDNAKNTVYLQMNSLKPEDTAVYYCAADWYWGGIVDSWGQGTQVTVSS” was “high polyreactivity”.
Next, “QVQLVESGGGLVQAGGSLRLSCAASGITFYVNAMGWYRQAPGKERELVAAINSGSTNYADSVKGRFTISRDNAKNTVYLQMNSLKPEDTAVYYCAVDVYWEFSPEYDYWGQGTQVTVSS”: “low polyreactivity”; “QVQLVESGGGLVQAGGSLRLSCAASGITFYVNAMGWYRQAPGKERELVAAITQSVDITSYADSVKGRFTISRDNAMNTFYLQINRLKPEYTAVYYCATRGIPDDNARDYWGQGTQVTVSS”: “low polyreactivity”; “QVQLVESGGGLVQAGGSLRLSCAASGITFYVYAMGWYRQAPGKERELVAAISGSGGNTYYADSVKGRFTISRDNAKNTVYVQMNSLKPEDTAVYYCNADDHSPYYCDLDYWGQGTQVTVSS”: “low polyreactivity”.
In the case of “QVQLVESGGGLVQAGGSLRLSCAASGITFYYYAMGWYRPAPGKERELVADITGTGSRTYYADSVKGRFTISRDNAKNTVYLQMNSLKPEDTAVYYCAATKRFPWFVYGEGDSWGQGTQVTVSS”, the “polyreactivity (PSR sort gate)” value was “high polyreactivity”.
The value for “QVQLVESGGGLVQAGGSLRLSCAASGITFYYYAMGWYRQAPGKERELVAAISTRDGNTYYADSVKGRFTISRDNAKNTVYLQMNSLKPEDTAVYYCAADYFRYYPYDYWGQGTQVTVSS” was “low polyreactivity”.
Turning to “QVQLVESGGGLVQAGGSLRLSCAASGITFYYYAMGWYRQAPGKERELVASISSVGSTYYADSVKGRFTISRDNAKNTVYLQMNSLKPEDTAVYYCAAVDYVRYYPDEFDYWGQGTQVTVSS”, the “polyreactivity (PSR sort gate)” value is “low polyreactivity”.
Next, “QVQLVESGGGLVQAGGSLRLSCAASGITFYYYTMGGYRQAPGKERELVAGITRGGRTYYADSVKGRFTISRDNAKNTVYLQMNSLKPEDTAVYYCNADPWWRFDYWGQGTQVTVSS”: “low polyreactivity”; “QVQLVESGGGLVQAGGSLRLSCAASGITFYYYTMGWYRQAPGKERELVAAITSRGGNTYYADSVKGRFTISRDYAKNTVYLQMNSLKPEDTAVYFCAASRFSSRGYGYWGQGTQVTVCS”: “high polyreactivity”.
Next, “QVQLVESGGGLVQAGGSLRLSCAASGITFYYYVMGWYRQAPGKERELVASISRGGSTYYADSVKGRFTISRDNAKNTVYLQMNSLKPEDTAVYYCAAAGNRPWSITPFRKRYGYNYWGQGSQVTVSS”: “high polyreactivity”.
The value for “QVQLVESGGGLVQAGGSLRLSCAASGITIKRYPMGWYRQAPGKEREFVATSSQSGTSTYYADSVKGRFTISRDNAKYTVYLQLNSLKPEDTAVYYCAADYIGYWYGYYSWGQGTQVTVSS” was “low polyreactivity”.
As for “QVQLVESGGGLVQAGGSLRLSCAASGITIRYYTMGWYRQAPGKERELVASISWSGTSTHYADSVKGRFTISRDNAKNTVYLQMNSLKPEDTAVYYCAATITSLAGGYRNGYTSYYWGQGTQVTVSS”, the “polyreactivity (PSR sort gate)” value is recorded as “high polyreactivity”.
The value for “QVQLVESGGGLVQAGGSLRLSCAASGITIRYYTMGWYRQAPGKESELVASISWSGTSTHYADSVKGRFTISRDNAKNTVYLQMNSLKPEDTAVYYCAATITSLAGVYRNGYTSYYWGQGTQVTVSS” was “high polyreactivity”.
Regarding “QVQLVESGGGLVQAGGSLRLSCAASGITISYYAMGWYRQAPGKERELVAAISFSGARTYYADSVKGRFTISRDNAKNTVYLQMNSLKPEDTAVYYCNAVSGIVQRYDYWGQGTQVTVSS”, the “polyreactivity (PSR sort gate)” value is on record as “high polyreactivity”.
Next, “QVQLVESGGGLVQAGGSLRLSCAASGITIVRYAMGWYRQAPGKERELVAAINRSGGSTYYADSVKGRFTISRDNAKNTVYLQMNSLKPEDTAVYYCAARLYGKYDPPGYYYWGQVTQVTVSS”: “high polyreactivity”; “QVQLVESGGGLVQAGGSLRLSCAASGITIWGYTMGWYRQAPGKERELVAAITSTGSTYYADSVKGRFTISRDNAKNHVYFQMNSQKPEDTSVYYCAATRGSSDYYYWGQGTQVTVSS”: “low polyreactivity”; “QVQLVESGGGLVQAGGSLRLSCAASGITIYIYAMGWYRQAPGKERELVAAISDVGSTHYADSVKGRFTISRDNAKNTVYLQMNSLKPEDTAVYYCNADYYWFFVFFDYDYWGQGTQVSVSS”: “low polyreactivity”.
Next, “QVQLVESGGGLVQAGGSLRLSCAASGITLALYAMGWYIQAPGKERELVAAISWTGGSTYYADSVKGRFTISRDNAKNTVYLQMNSLKPEDPAVYYCNAVPGPPHSYLGGDYWGQGTQVTVSS”: “high polyreactivity”; “QVQLVESGGGLVQAGGSLRLSCAASGITLARNAMGWYRQAPGKERELVASITWSGGTTYYADSVKGRFTISRDNAKNTVYLQMISLKPEDTAVYYCAASAKLHYYRTYRYNYWGQGTQVSVSS”: “high polyreactivity”.
The value for “QVQLVESGGGLVQAGGSLRLSCAASGITLFYSAMGWYRQAPGKERELVAAISWSGGSTYYADSVKGRFTISRDNAKNTVYLQMNSLKPEDTAVYYCAAGYIRFYRSREYWGQGTQVTVSS” was “high polyreactivity”.

(Values after the nanobody polyreactivity screen of Harvey et al. (2022).)
